These results are taken from US20240325562A1, “INTERNALIZING BINDING MOLECULES” (LinXis B.V., priority 2020, published 2024).

A value given as a limit tells only on which side of the number the result lay.

In data set [1] the target is hPDGFRB (Homo sapiens, UniProt P09619). Put plainly: Competition assays of PDGFRB VHHs on hPDGFRB. Type of data set: binding. To be noted: IRDye800-conjugated SP26P as reporter. As for the experimental part:
(§1) Biparatopic VHH constructs contain two VHH which bind to a different epitope, i.e. which are non-competitive binders. To identify (a) pair(s) of non-competitive binders, competition assays were performed. In the example shown, an Alexa fluor-conjugate of the high affine VHH 13F11 was used as the reporter VHH (13F11-A647, see example 10.2). In the assay, a non-saturating amount (10 nM) of 13F11-A647 was incubated with immobilized hIGF2R-ECD in the presence or absence of 250 nM unconjugated competitor VHH to allow competition to take place.
(§2) Similar as to in example 6.1, competition assays were performed to identify unique hPDGFRB- or rPDGFRB binders. Across 10 PDGFRB-binding VHHs obtained from libraries 1 and 2 (e.g. the VHH raised against hPDGFRB), four main groups were identified being first SP01P, SP02P, SP07P and SP13P, second SP05P, SP08P and SP10P, third SP12P and SP20P and finally SP14P. All VHH within each of the first three groups mutually competed.
To evaluate whether the obtained VHHs would qualify as building blocks for multivalent VHH constructs that bind hPDGFRB as well as rPDGFRB (e.g. ‘species cross-reactive’ VHH constructs), competition assays were performed using the most promising VHHs SP02 (raised against hPDGFRB) and SP26P (raised against rPDGFRB).

Data set [2] has as its target rPDGFRB (Rattus norvegicus, UniProt Q05030). The experiment in a line: Competition assays of PDGFRB VHHs on rPDGFRB. Type of data set: binding. To be noted: VHHs from libraries 3 and 4. As for the experimental part:
as §1, §2

Data set [3] deals with primary activated rat hepatic stellate cells (HSCs). The experiment in a line: Binding to primary activated rat hepatic stellate cells. Type of data set: cell-based. As to conditions: Alexa Fluor 488 conjugate; HSCs from BDL rat, 6 days in culture. From the text:
The cross-reactivity of F11-E8-ABD was further evaluated in binding experiments to primary activated rat hepatic stellate cells (HSCs). For this, the construct was conjugated to Alexa Fluor 488 according to the methods described in example 10.2. Activated HSCs were obtained from a perfused liver of a cirrhotic bile duct ligated (BDL) rat through density gradient centrifugation. Cells were kept in culture for 6 days to allow complete activation. […] Simultaneously, binding of the VHH construct to the activated cells was evident, further confirming species cross-reactivity of the construct.

Data set [4] can be described thus: In vivo pharmacokinetics in rats, serum ELISA on hIGF2R-ECD. On the set-up: species or system Sprague-Dawley rats. As for the experimental part:
(§3) The in vivo pharmacokinetic properties of 13F11-13E8-ABD (F11E8-ABD; with ABD) and 13F11-13E8 (F11E8; without ABD) were compared in healthy Sprague-Dawley rats. In brief, rats were dosed intravenously with approximately 3 mg/kg body weight and blood samples were taken at different time points and the concentration of the VHH constructs were determined using an ELISA on immobilized hIGF2R-ECD. […] To further confirm the functionality of the ABD, biodistribution of F11E8-ABD and F11E8 were assessed by means of Positron Emission Tomography (PET). In brief, the constructs were radio-labelled with the positron emitter ^89Zr-desferral according to Verel et al (J Nucl Med. 2003; 44:1271-1281), and administered intravenously to rats after which biodistribution was assessed on subsequent time points by whole-body PET.

Data set [5] is described as follows: Biodistribution by whole-body PET of 89Zr-labelled constructs. It is filed as in vivo. As to conditions: 89Zr-desferral labelled, i.v., rats. As to the method: as §3
Data set [6] concerns the target T1, IGF2R (Rattus norvegicus, UniProt G3V824).
T1 construct: from tissue; host or cells: cryo-sections of rat tissues (liver, kidney, spleen, heart, ileum, brain); Sprague-Dawley BDL and SHAM rats
The experiment in a line: Staining of rat tissue cryo-sections for IGF2R. To be noted: 50 nM, overnight 4° C. As to the method:
(§4) To evaluate whether F11E8-ABD bound to IGF2R as (over-) expressed in the cirrhotic liver, various cryo-sections of tissues (liver, kidney, spleen, heart, ileum, brain) obtained from both healthy (SHAM) and cirrhotic (BDL) rats (preparation procedure as outlined in example 15) were stained with 13F11-13E8-ABD conjugated to Alexa Fluor 647 (13F11-13E8-ABD-A647, conjugation method as described in example 10.2.). Staining was performed with 50 nM 13F11-13E8-ABD-AF647 during overnight incubation at 4° C. Subsequently, the sections were washed and stained with DAPI, mounted with mowiol mounting medium (Merck) and imaged on a Zeiss LSM700 laser scanning confocal microscope with a 20× objective. […] In the tissues other than the liver, no upregulation of IGF2R was observed.

The target in data set [7] is T2, PDGFRB (Rattus norvegicus, UniProt Q05030).
T2 construct: from tissue; host or cells: cryo-sections of rat tissues (liver, kidney, spleen, heart, ileum, brain) of BDL and SHAM rats
T2 sequence (Q05030 32-1097): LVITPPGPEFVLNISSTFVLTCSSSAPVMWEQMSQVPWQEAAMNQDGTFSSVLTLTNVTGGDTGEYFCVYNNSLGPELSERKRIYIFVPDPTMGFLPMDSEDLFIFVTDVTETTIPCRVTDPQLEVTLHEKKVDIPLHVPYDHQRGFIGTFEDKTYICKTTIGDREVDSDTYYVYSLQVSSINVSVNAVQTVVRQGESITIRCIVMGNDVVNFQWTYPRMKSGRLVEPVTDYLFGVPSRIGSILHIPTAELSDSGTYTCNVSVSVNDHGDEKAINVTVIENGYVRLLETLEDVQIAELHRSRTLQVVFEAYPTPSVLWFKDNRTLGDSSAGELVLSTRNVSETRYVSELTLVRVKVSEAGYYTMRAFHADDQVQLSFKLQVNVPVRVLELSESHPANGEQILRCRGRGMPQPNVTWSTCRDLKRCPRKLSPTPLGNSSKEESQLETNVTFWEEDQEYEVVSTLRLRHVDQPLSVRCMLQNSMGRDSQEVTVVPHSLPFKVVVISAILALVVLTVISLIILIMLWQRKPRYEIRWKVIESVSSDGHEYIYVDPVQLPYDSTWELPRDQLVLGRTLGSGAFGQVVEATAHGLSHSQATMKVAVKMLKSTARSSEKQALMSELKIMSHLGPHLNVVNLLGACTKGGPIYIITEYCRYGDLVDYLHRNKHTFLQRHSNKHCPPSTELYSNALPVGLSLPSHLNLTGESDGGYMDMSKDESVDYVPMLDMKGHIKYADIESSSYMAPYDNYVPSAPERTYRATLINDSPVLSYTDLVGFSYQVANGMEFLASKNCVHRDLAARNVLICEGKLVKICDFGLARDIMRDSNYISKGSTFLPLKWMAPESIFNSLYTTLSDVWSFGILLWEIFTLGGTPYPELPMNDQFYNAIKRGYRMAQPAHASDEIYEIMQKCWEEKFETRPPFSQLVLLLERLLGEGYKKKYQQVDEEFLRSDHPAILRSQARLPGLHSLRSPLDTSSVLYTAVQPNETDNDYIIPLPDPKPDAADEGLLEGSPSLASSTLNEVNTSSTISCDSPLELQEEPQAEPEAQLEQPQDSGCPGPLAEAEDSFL
The experiment in a line: Staining of rat tissue cryo-sections for PDGFRB. To be noted: 50 nM, overnight 4° C. As for the experimental part: as §4, with “SP02-SP26-ABD” for “F11E8-ABD”, “PDGFRB” for “IGF2R”, “SP02-SP26-ABD” for “13F11-13E8-ABD”, “(SP02-SP26-ABD-A647,” for “(13F11-13E8-ABD-A647,”, “SP02-SP26-ABD-AF647” for “13F11-13E8-ABD-AF647”, “(Merck),” for “(Merck)”

Data set [8] deals with T3, hPDGFRB (SCC-hPDGFRB cells) (Homo sapiens, UniProt P09619).
T3 construct: SCC VII cells transgenically expressing full-length human PDGFRB (SCC-hPDGFRB); expressed in transfected cells; host or cells: murine SCC VII cells
The experiment in a line: Binding to cells transgenically expressing human PDGFRB. As to the method:
(§5) High affine binders to hPDGFRB-ECD or rPDGFRB-ECD were subsequently assessed for binding to SCC VII cells transfected with hPDGFRB and rPDGFRB, respectively.
(§6) Based on their high affinity and binding to non-overlapping hPDGRB epitopes, various biparatopic constructs were prepared based on VHHs SP02P, SP12P SP14P, SP26P and SP28P. The constructs were produced as described in example 7.1. and subjected to binding assay.
(§7) As Shown in FIG. 15C), the binding affinity of this construct for both hPDGFRB and rPDGFRB are below 5 nM. […] These observations make SP02P (or similar VHH) and SP26P (or similar VHH) particularly promising for use in the present invention.

Data set [9] deals with T4, rPDGFRB (SCC-rPDGFRB cells) (Rattus norvegicus, UniProt Q05030).
T4 construct: SCC VII cells transgenically expressing full-length rat PDGFRB (SCC-rPDGFRB); expressed in transfected cells; host or cells: murine SCC VII cells
T4 sequence (Q05030 32-1097): as above
Put plainly: Binding to cells transgenically expressing rat PDGFRB. As for the experimental part:
as §5, §6, §7

The target of data set [10] is hPDGFRB-ECD (Homo sapiens, UniProt P09619). Put plainly: Binding assay on hPDGFRB-ECD. As to conditions: biparatopic constructs, FIG. 15A. As for the experimental part: The 15 unique hIGF2R-binding VHH (Example 2.1, FIG. 2) were produced and purified as described in examples 3 and 4. The apparent affinities were determined through binding assay on immobilized hIGF2R-ECD. Briefly, three-fold serial dilution series, starting from 1 μM, of each VHH were plated onto hIGF2R-ECD coated plates. VHH were allowed to bind for two hours after which plates were washed. Then, bound VHH was detected using a VHH-specific IgG antibody, followed by an IRD800CW-conjugated IgG-specific antibody. Plates were read out by fluorimetry.
hPDGFRB-ECD, sequence (P09619 33-532 limits assumed): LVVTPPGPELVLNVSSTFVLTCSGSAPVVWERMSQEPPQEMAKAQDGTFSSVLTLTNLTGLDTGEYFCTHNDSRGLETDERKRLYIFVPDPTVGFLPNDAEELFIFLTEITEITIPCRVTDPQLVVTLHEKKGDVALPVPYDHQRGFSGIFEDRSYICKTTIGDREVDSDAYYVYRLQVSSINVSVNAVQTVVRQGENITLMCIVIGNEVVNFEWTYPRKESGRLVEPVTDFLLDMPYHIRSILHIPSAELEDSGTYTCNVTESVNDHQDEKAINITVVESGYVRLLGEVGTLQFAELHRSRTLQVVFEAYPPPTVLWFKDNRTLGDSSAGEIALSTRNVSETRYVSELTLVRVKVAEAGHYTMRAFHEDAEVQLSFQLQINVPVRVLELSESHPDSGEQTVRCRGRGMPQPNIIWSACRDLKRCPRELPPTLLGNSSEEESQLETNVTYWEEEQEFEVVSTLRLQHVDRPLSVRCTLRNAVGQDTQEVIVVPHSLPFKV
The 18 unique hPDGFRB binders from libraries 1 and 2, and the 11 unique rPDGFRB binders from libraries 3 and 4 (Example 2.2, FIGS. 5 and 6) were produced and purified as described in examples 3 and 4. Then, the apparent affinities were determined with binding assays on hPDGFRB-ECD and rPDGFRB-ECD, respectively, the setup described in example 5.1. Results are summarized in FIGS. 5 and 6 for the hPDGFRB and rPDGFRB VHHs, respectively.
as §6
As Shown in FIG. 15C), the binding affinity of this construct for both hPDGFRB and rPDGFRB are below 5 nM. […]

T1 sequence (G3V824 36-2481): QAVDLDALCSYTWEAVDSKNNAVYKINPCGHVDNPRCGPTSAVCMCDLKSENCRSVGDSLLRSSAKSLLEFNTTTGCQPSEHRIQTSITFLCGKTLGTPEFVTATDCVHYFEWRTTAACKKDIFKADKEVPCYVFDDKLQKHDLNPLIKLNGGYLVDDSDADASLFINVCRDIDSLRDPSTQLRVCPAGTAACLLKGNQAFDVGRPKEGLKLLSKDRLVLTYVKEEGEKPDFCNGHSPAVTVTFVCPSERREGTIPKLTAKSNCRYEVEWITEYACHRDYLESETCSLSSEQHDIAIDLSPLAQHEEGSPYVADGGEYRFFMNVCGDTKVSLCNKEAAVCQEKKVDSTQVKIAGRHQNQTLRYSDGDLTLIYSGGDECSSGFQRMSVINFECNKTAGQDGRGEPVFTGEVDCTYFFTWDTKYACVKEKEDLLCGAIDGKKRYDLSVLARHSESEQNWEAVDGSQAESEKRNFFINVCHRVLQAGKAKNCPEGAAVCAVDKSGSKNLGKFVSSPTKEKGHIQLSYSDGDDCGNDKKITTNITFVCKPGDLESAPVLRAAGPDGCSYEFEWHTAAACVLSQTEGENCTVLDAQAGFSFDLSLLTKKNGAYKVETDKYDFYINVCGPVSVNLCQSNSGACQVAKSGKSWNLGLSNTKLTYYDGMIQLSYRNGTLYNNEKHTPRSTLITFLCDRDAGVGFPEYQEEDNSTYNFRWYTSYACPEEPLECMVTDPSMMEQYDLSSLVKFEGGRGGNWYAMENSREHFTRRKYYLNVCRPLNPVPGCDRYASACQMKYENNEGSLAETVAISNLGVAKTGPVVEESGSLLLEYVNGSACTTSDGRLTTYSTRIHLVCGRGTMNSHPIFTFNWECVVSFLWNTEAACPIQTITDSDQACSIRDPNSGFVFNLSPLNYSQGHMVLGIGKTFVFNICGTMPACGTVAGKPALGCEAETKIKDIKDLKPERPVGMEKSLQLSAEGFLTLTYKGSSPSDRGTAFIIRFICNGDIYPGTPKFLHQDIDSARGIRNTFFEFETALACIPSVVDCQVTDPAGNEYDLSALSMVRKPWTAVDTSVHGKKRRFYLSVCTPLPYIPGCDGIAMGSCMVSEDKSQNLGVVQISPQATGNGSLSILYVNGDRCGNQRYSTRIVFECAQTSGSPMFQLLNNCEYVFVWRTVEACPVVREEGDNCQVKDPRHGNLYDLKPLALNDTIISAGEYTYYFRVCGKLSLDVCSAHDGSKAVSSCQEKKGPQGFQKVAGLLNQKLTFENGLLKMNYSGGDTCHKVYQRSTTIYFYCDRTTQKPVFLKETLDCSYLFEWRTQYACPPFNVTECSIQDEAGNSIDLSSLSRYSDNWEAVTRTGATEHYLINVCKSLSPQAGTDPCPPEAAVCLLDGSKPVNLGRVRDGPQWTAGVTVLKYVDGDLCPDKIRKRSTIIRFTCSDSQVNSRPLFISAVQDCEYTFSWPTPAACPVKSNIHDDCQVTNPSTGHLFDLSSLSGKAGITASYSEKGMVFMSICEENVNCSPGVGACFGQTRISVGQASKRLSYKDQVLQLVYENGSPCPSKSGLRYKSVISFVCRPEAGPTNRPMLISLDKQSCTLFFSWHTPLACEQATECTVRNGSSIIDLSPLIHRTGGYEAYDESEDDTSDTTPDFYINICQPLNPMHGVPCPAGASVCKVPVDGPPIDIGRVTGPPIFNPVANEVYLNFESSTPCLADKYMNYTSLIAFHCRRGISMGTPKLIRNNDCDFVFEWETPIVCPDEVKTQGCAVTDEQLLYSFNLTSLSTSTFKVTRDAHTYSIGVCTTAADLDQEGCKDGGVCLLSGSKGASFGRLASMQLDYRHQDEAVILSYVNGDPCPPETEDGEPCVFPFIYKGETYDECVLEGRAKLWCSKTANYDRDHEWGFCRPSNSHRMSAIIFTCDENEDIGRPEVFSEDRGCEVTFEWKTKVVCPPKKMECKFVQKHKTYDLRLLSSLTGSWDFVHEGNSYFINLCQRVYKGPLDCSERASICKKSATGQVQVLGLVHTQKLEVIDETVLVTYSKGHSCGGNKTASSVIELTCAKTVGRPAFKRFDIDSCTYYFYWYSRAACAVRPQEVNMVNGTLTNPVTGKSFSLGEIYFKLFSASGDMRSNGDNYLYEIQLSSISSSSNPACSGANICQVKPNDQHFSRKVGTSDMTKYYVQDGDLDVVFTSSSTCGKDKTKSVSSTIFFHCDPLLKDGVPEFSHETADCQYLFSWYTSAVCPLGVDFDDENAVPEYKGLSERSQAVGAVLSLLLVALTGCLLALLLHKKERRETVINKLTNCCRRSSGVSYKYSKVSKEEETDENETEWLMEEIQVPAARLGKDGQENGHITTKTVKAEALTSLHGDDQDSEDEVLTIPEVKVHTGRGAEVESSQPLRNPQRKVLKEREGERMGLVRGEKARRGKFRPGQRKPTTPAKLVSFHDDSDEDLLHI
hPDGFRB, sequence (P09619 33-532 limits assumed): as the sequence (P09619 33-532 limits assumed) above
rPDGFRB, sequence (Q05030 32-1097): as the sequence (Q05030 32-1097) above

B1: SP26P: VHH single domain antibody targeting PDGFRB, SEQ ID NO: 153 (protein)
VHH: EVQLVESGGGLVQAGGSLRLSCAASGRSFSSSVMGWFRQTPGKEREFVAATRWTAASTHYADSVKGRFTISRDHAENAVFLQMNSLKPEDTAVYYCAAGNYLDTAQYRYNYWGQGTQVTVSS
As for B1, in data set [1], the “competition between SP02 and SP26P” value is given as “did not compete”. Also, the “epitope compared to SP27P, SP28P, SP30P, SP31P and SP36P” value in data set [2] was “unique epitope”.

B2: 13F11-13E8-ABD: 13F11-13E8 re-engineered to include an albumin binding domain (ABD) as half-life extender (protein)
chain: EVQLVESGGRLVQPGDSLRLSCAASGRTFSDNAMGWFRQAPGKERRFVAGISWAGGSTYYSDSVKGRFTISRDNAKNTVYLQMNSLKPEDTAVYYCAAGLRAWVQRMPKDYNYWGQGTQVTVSSGGGGSGGGGSGGGGSEVQLVESGGGLVQAGGSLRLSCAASRSISPMGWYRQAPGKQRELVAIMPSSGPPIYADSVQGRFTISRDNAKNTVYLQMNSLKPEDTAVYYCNVGGGYWGQGTQVTVSS
modifications: left off: large carriers; small tags and cut ends
With B2, the “binding to activated HSCs” value in data set [3] is on record as “evident”. Moreover, the “infused dose still in circulation” value in [4] (one hour after dosing, approximately 20 nmoles infused, estimated serum volume 10 mL) was “approximately 50%”. Moreover, the Cmax in data set [4] (rats, i.v., approximately 3 mg/kg, read-out: peak serum level (Cmax)) is over 1000 nM. Moreover, the “biodistribution (PET)” value in data set [5] is given as “accumulate in the liver”.

B3: 13F11-13E8-ABD-AF647: 13F11-13E8-ABD conjugated to Alexa Fluor 647 (conjugate)
chain: EVQLVESGGRLVQPGDSLRLSCAASGRTFSDNAMGWFRQAPGKERRFVAGISWAGGSTYYSDSVKGRFTISRDNAKNTVYLQMNSLKPEDTAVYYCAAGLRAWVQRMPKDYNYWGQGTQVTVSSGGGGSGGGGSGGGGSEVQLVESGGGLVQAGGSLRLSCAASRSISPMGWYRQAPGKQRELVAIMPSSGPPIYADSVQGRFTISRDNAKNTVYLQMNSLKPEDTAVYYCNVGGGYWGQGTQVTVSS
modifications: left off: large carriers; small tags and cut ends
On to B3, for which, in data set [6], the “staining of cirrhotic (BDL) rat liver” value is “strongly stains activated fibroblasts” and the “staining of normal (SHAM) rat liver” value was “only background signal was detected”.

B4: SP02-SP26-ABD-AF647: SP02-SP26-ABD conjugated to Alexa Fluor 647 (conjugate)
chain: EVQLVESGGGLVQAGGSLRLSCAASESISSIEQMGWFRQAPGKQRALVAINTYGGRTVYTNSVEGRFTMSRDSAKNMVYLQMTSLEPEDTAVYYCYAQTTAWRGGVWGQGTQVTVSSGGGGSGGGGSGGGGSEVQLVESGGGLVQAGGSLRLSCAASGRSFSSSVMGWFRQTPGKEREFVAATRWTAASTHYADSVKGRFTISRDHAENAVFLQMNSLKPEDTAVYYCAAGNYLDTAQYRYNYWGQGTQVTVSS
modifications: left off: large carriers; small tags and cut ends
With B4, in data set [7], the “staining of cirrhotic (BDL) rat liver” value is recorded as “strongly stains activated fibroblasts” and the “staining of normal (SHAM) rat liver” value is given as “only background signal was detected”.

B5: SP26P-SP28P: biparatopic construct based on VHH raised against rPDGFRB (protein)
chain: EVQLVESGGGLVQAGGSLRLSCAASGSIVSFNGINWYRQAPGKQREWVGGITQGGNTMYADSVRGRFTISRDNTKNTMYLQMNSLKPEDTAVYYCRRPPVASWGQGTQVTVSSGGGGSGGGGSGGGGSEVQLVESGGGLVQAGGSLRLSCAASGRSFSSSVMGWFRQTPGKEREFVAATRWTAASTHYADSVKGRFTISRDHAENAVFLQMNSLKPEDTAVYYCAAGNYLDTAQYRYNYWGQGTQVTVSS
modifications: left off: small tags and cut ends
notes: biparatopic construct based on VHH raised against rPDGFRB
B5: the “affinity for hPDGFRB on cells” value in data set [8] is “low affinity”. Also, the “affinity for rPDGFRB on cells” value in [9] is given as “high affinity”. In [10], the “affinity for hPDGFRB” value was “lowest affinity”.
